The text below walks through data of patent publication US20200392228A1 (PANDION OPERATIONS, published 2020).

A value given as a limit tells only on which side of the number the result lay.

In the assay the target is T1, CD25 (Homo sapiens (Human), UniProt P01589 22-240).
T1 construct: also called IL-2R alpha chain
T1 sequence: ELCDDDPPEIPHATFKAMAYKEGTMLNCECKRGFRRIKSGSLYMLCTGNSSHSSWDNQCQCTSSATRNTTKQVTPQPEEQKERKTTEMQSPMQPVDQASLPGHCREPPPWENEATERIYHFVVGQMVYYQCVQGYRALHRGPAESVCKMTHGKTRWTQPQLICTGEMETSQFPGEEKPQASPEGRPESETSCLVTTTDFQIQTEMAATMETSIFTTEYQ
Description: ELISA, plate-bound CD25. As to the method: An immunosorbent plate was coated with CD25 at a concentration of 0.5 μg/mL in PBS pH 7.4, 75 ul/well, and incubated overnight at 4° C. Wells were washed with PBS pH 7.4 containing 0.05% Tween-20 (wash buffer) three times, and then blocked with 200 ul/well 1% BSA in PBS pH 7.4 (block buffer) for two hours at room temperature. After three washes with wash buffer IL-2M molecules of Example 12 were diluted to eleven—two fold serial dilution in PBS containing 1% BSA and 0.05% Tween-20 (assay buffer) with 2 nM being the highest concentration. The diluted material was added to the CD25 coated plate at 75 ul/well for 1 hour at room temperature. After three washes with wash buffer, a goat biotinylated anti-IL-2 polyclonal antibody, diluted to 0.05 μg/mL in assay buffer, was added to the plate at 75 ul/well for 1 hr at room temperature. After three washes with wash buffer high sensitivity streptavidin HRP diluted in assay buffer at 1:5000 was added to the plate at 75 ul/well for 15 minutes at room temperature. After three washes with wash buffer and 1 wash with wash buffer (with no tween-20), the assay was developed with TMB, and stopped with 1N HCL. OD 450 nm was measured. The experiment included appropriate controls for non-specific binding of IL-2M molecules to the plate/block in the absence of CD25 and a negative control molecule that is unable to bind CD25.
In general terms: In an ELISA, binding on a coated surface is turned into a signal by an enzyme label.

B1: human IL-2M fused N-terminally to human IgG1 Fc domain (SEQ ID NO: 57) (Fc fusion)
chain: APTSSSTKKTQLQLEHLLLDLQMILNGINNYKNPKLTRMLTFKFYMPKKATELKHLQCLEEELKPLEEALNLAPSKNFHLRPRDLISDINVIVLELKGSETTFMCEYADETATIVEFLNRWITFSQSIISTLTGGGGSGGGGSGGGGSGGGGSDKTHTCPPCPAPEAAGAPSVFLFPPKPKDTLMISRTPEVTCVVVDVSHEDPEVKFNWYVDGVEVHNAKTKPREEQYNSTYRVVSVLTVLHQDWLNGKEYKCKVSNKALPAPIEKTISKAKGQPREPQVYTLPPSREEMTKNQVSLTCLVKGFYPSDIAVEWESNGQPENNYKTTPPVLDSDGSFFLYSKLTVDKSRWQQGNVFSCSVMHEALHNHYTQKSLSLSPG
notes: also called IL-2 N88D V69A, Q74P-G4Sx4-Fc
Turning to B1, the EC50 (as a rule, the concentration at which the effect is half-maximal) is below 1 nM.

B2: IL-2M SEQ ID NO: 54 (Fc fusion)
chain: APTSSSTKKTQLQLEHLLLDLQMILNGINNYKNPKLTRMLTFKFYMPKKATELKHIQCLEEELKPLEEALNLAPSKNFHLRPRDLISDINVIVLELKGSETTFMCEYADETATIVEFLNRWITFSQSIISTLTGGGGSGGGGSGGGGSGGGGSDKTHTCPPCPAPEAAGAPSVFLFPPKPKDTLMISRTPEVTCVVVDVSHEDPEVKFNWYVDGVEVHNAKTKPREEQYNSTYRVVSVLTVLHQDWLNGKEYKCKVSNKALPAPIEKTISKAKGQPREPQVYTLPPSREEMTKNQVSLTCLVKGFYPSDIAVEWESNGQPENNYKTTPPVLDSDGSFFLYSKLTVDKSRWQQGNVFSCSVMHEALHNHYTQKSLSLSPG
notes: also called IL-2 L56I N88D V69A, Q74P, C125S-G4Sx4-Fc
Regarding B2, the EC50 was below 1 nM.

B3: IL-2M SEQ ID NO: 55 (Fc fusion)
chain: APTSSSTKKTQLQLEHLLLDLQMILNGINNYKNPKLTRMLTFKFYMPKKATELKHLQCLEEELKPLEEALNLAPSKNFHIRPRDLISDINVIVLELKGSETTFMCEYADETATIVEFLNRWITFSQSIISTLTGGGGSGGGGSGGGGSGGGGSDKTHTCPPCPAPEAAGAPSVFLFPPKPKDTLMISRTPEVTCVVVDVSHEDPEVKFNWYVDGVEVHNAKTKPREEQYNSTYRVVSVLTVLHQDWLNGKEYKCKVSNKALPAPIEKTISKAKGQPREPQVYTLPPSREEMTKNQVSLTCLVKGFYPSDIAVEWESNGQPENNYKTTPPVLDSDGSFFLYSKLTVDKSRWQQGNVFSCSVMHEALHNHYTQKSLSLSPG
notes: also called IL-2 L80I N88D V69A, C125S Q74P-G4Sx4-Fc
In turn, B3 came in with an EC50 below 1 nM.

B4: IL-2M SEQ ID NO: 56 (Fc fusion)
chain: APTSSSTKKTQLQLEHLLLDLQMILNGINNYKNPKLTRMLTFKFYMPKKATELKHLQCLEEELKPLEEALNLAPSKNFHLRPRDLISDINVIVLELKGSETTFMCEYADETATIVEFINRWITFSQSIISTLTGGGGSGGGGSGGGGSGGGGSDKTHTCPPCPAPEAAGAPSVFLFPPKPKDTLMISRTPEVTCVVVDVSHEDPEVKFNWYVDGVEVHNAKTKPREEQYNSTYRVVSVLTVLHQDWLNGKEYKCKVSNKALPAPIEKTISKAKGQPREPQVYTLPPSREEMTKNQVSLTCLVKGFYPSDIAVEWESNGQPENNYKTTPPVLDSDGSFFLYSKLTVDKSRWQQGNVFSCSVMHEALHNHYTQKSLSLSPG
notes: also called IL-2 L118I N88D V69A, Q74P, C125S-G4Sx4-Fc
Molecule B4 displayed an EC50 below 1 nM.

B5: IL-2M SEQ ID NO: 53 (Fc fusion)
chain: APTSSSTKKTQLQLEHLLLDLQMILNGINNYKNPKLTRMLTFKFYMPKKATEIKHLQCLEEELKPLEEALNLAPSKNFHLRPRDLISDINVIVLELKGSETTFMCEYADETATIVEFLNRWITFSQSIISTLTGGGGSGGGGSGGGGSGGGGSDKTHTCPPCPAPEAAGAPSVFLFPPKPKDTLMISRTPEVTCVVVDVSHEDPEVKFNWYVDGVEVHNAKTKPREEQYNSTYRVVSVLTVLHQDWLNGKEYKCKVSNKALPAPIEKTISKAKGQPREPQVYTLPPSREEMTKNQVSLTCLVKGFYPSDIAVEWESNGQPENNYKTTPPVLDSDGSFFLYSKLTVDKSRWQQGNVFSCSVMHEALHNHYTQKSLSLSPG
notes: also called IL-2 L53I N88D V69A, Q74P, C125S-G4Sx4-Fc
Molecule B5 gave an EC50 below 1 nM.
